In one experiment the target is FcγRIIa (H) variant (UniProt P12318). The experiment is described as follows: in vitro binding, method not stated for the single mutant.
The target of a further experiment is FcγRIIb (UniProt P31994). The description is as above.

The text below walks through data of US20130108623A1.

Chain of UniProt P31994 (P31994 43-217 limits assumed): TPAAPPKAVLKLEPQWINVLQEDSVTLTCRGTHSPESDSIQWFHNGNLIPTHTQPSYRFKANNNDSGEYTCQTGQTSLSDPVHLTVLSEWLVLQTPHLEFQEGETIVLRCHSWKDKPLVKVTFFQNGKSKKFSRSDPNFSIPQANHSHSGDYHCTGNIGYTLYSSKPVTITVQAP
Chain of UniProt P12318 (P12318 34-217 limits assumed, change not shown): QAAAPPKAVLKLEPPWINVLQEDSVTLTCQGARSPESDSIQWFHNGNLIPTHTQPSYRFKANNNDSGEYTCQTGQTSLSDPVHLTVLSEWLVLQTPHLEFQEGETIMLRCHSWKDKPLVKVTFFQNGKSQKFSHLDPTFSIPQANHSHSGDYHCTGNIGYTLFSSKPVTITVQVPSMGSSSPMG

In the case of “Fc variant D270N (single mutation) (antibody)”, the fold reduction of binding against wild type in the experiment with FcγRIIa (H) variant and with FcγRIIb was 100 fold in each case.
“Fc variant K326E (single mutation) (antibody)” returned a fold improvement of binding against wild type with FcγRIIb of 4 fold.
